The results in this text go back to PMC10786891, “Massively parallel profiling of RNA-targeting CRISPR-Cas13d”.

T1: EsCas13d, nuclease-dead (Eubacterium siraeum, UniProt B0MS50, R295A;H300A;R849A;H854A)
T1 sequence: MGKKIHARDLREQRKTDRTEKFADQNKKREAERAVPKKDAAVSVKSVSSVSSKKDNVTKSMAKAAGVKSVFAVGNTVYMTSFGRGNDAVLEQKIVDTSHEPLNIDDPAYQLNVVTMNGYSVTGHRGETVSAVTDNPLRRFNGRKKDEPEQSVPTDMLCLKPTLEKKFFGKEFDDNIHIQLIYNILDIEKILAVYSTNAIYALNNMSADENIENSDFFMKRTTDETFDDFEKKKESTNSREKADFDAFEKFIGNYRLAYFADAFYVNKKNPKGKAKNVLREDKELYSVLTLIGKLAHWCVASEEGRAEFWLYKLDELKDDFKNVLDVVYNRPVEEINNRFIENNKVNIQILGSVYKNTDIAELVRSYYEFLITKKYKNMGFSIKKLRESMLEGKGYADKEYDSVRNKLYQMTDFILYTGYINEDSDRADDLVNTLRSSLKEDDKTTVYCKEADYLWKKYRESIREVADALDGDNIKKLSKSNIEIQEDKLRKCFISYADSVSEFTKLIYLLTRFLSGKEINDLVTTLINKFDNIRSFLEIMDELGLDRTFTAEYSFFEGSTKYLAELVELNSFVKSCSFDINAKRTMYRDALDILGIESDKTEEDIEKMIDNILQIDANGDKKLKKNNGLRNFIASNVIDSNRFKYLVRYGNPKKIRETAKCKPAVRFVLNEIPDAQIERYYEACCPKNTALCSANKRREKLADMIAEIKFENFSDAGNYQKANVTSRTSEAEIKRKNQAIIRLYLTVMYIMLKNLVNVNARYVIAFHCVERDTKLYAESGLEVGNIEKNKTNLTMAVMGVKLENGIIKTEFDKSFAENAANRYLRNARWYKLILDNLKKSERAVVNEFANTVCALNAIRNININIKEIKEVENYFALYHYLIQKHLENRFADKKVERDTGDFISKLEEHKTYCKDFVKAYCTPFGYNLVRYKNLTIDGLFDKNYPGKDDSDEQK

B1: target 2 MT 5'PFS UCA 3'PFS AAU (mixed)
RNA 1: CACCCGUGCAAAAUUGCAGGGGUCUAAAACCUUCUCCAAAUUGUUUCAUCCU
RNA 2: GGGAAUGGAUCCACAUCUACGAAUUCUCAAGGAUGAAACAAUUUGGAGAAGAAUAGAUCGGAAGAGCACACGU
B2: target 2 MT 5'PFS CAC 3'PFS UCU (mixed)
RNA 1: CACCCGUGCAAAAUUGCAGGGGUCUAAAACCUUCUCCAAAUUGUUUCAUCCU
RNA 2: GGGAAUGGAUCCACAUCUACGAAUUCCACAGGAUGAAACAAUUUGGAGAAGUCUAGAUCGGAAGAGCACACGU
B3: target 2 MT 5'PFS GUA 3'PFS AGG (mixed)
RNA 1: CACCCGUGCAAAAUUGCAGGGGUCUAAAACCUUCUCCAAAUUGUUUCAUCCU
RNA 2: GGGAAUGGAUCCACAUCUACGAAUUCGUAAGGAUGAAACAAUUUGGAGAAGAGGAGAUCGGAAGAGCACACGU
B4: target 2 MT 5'PFS CAC 3'PFS UCG (mixed)
RNA 1: CACCCGUGCAAAAUUGCAGGGGUCUAAAACCUUCUCCAAAUUGUUUCAUCCU
RNA 2: GGGAAUGGAUCCACAUCUACGAAUUCCACAGGAUGAAACAAUUUGGAGAAGUCGAGAUCGGAAGAGCACACGU
B5: target 2 MT 5'PFS GCU 3'PFS CUC (mixed)
RNA 1: CACCCGUGCAAAAUUGCAGGGGUCUAAAACCUUCUCCAAAUUGUUUCAUCCU
RNA 2: GGGAAUGGAUCCACAUCUACGAAUUCGCUAGGAUGAAACAAUUUGGAGAAGCUCAGAUCGGAAGAGCACACGU
B6: target 2 MT 5'PFS CUC 3'PFS ACA (mixed)
RNA 1: CACCCGUGCAAAAUUGCAGGGGUCUAAAACCUUCUCCAAAUUGUUUCAUCCU
RNA 2: GGGAAUGGAUCCACAUCUACGAAUUCCUCAGGAUGAAACAAUUUGGAGAAGACAAGAUCGGAAGAGCACACGU
B7: target 2 MT 5'PFS UGG 3'PFS CCA (mixed)
RNA 1: CACCCGUGCAAAAUUGCAGGGGUCUAAAACCUUCUCCAAAUUGUUUCAUCCU
RNA 2: GGGAAUGGAUCCACAUCUACGAAUUCUGGAGGAUGAAACAAUUUGGAGAAGCCAAGAUCGGAAGAGCACACGU
B8: target 2 MT 5'PFS UAG 3'PFS UUU (mixed)
RNA 1: CACCCGUGCAAAAUUGCAGGGGUCUAAAACCUUCUCCAAAUUGUUUCAUCCU
RNA 2: GGGAAUGGAUCCACAUCUACGAAUUCUAGAGGAUGAAACAAUUUGGAGAAGUUUAGAUCGGAAGAGCACACGU
B9: target 2 MT 5'PFS AGG 3'PFS UAC (mixed)
RNA 1: CACCCGUGCAAAAUUGCAGGGGUCUAAAACCUUCUCCAAAUUGUUUCAUCCU
RNA 2: GGGAAUGGAUCCACAUCUACGAAUUCAGGAGGAUGAAACAAUUUGGAGAAGUACAGAUCGGAAGAGCACACGU
B10: target 2 MT 5'PFS AGG 3'PFS AAC (mixed)
RNA 1: CACCCGUGCAAAAUUGCAGGGGUCUAAAACCUUCUCCAAAUUGUUUCAUCCU
RNA 2: GGGAAUGGAUCCACAUCUACGAAUUCAGGAGGAUGAAACAAUUUGGAGAAGAACAGAUCGGAAGAGCACACGU
B11: target 2 MT 5'PFS UCU 3'PFS CAG (mixed)
RNA 1: CACCCGUGCAAAAUUGCAGGGGUCUAAAACCUUCUCCAAAUUGUUUCAUCCU
RNA 2: GGGAAUGGAUCCACAUCUACGAAUUCUCUAGGAUGAAACAAUUUGGAGAAGCAGAGAUCGGAAGAGCACACGU
B12: target 2 MT 5'PFS CAC 3'PFS UCC (mixed)
RNA 1: CACCCGUGCAAAAUUGCAGGGGUCUAAAACCUUCUCCAAAUUGUUUCAUCCU
RNA 2: GGGAAUGGAUCCACAUCUACGAAUUCCACAGGAUGAAACAAUUUGGAGAAGUCCAGAUCGGAAGAGCACACGU
B13: target 2 MT 5'PFS UAG 3'PFS UCG (mixed)
RNA 1: CACCCGUGCAAAAUUGCAGGGGUCUAAAACCUUCUCCAAAUUGUUUCAUCCU
RNA 2: GGGAAUGGAUCCACAUCUACGAAUUCUAGAGGAUGAAACAAUUUGGAGAAGUCGAGAUCGGAAGAGCACACGU
B14: target 2 MT 5'PFS CUC 3'PFS ACC (mixed)
RNA 1: CACCCGUGCAAAAUUGCAGGGGUCUAAAACCUUCUCCAAAUUGUUUCAUCCU
RNA 2: GGGAAUGGAUCCACAUCUACGAAUUCCUCAGGAUGAAACAAUUUGGAGAAGACCAGAUCGGAAGAGCACACGU
B15: target 2 MT 5'PFS AGG 3'PFS AAU (mixed)
RNA 1: CACCCGUGCAAAAUUGCAGGGGUCUAAAACCUUCUCCAAAUUGUUUCAUCCU
RNA 2: GGGAAUGGAUCCACAUCUACGAAUUCAGGAGGAUGAAACAAUUUGGAGAAGAAUAGAUCGGAAGAGCACACGU
B16: target 2 MT 5'PFS GUA 3'PFS AGC (mixed)
RNA 1: CACCCGUGCAAAAUUGCAGGGGUCUAAAACCUUCUCCAAAUUGUUUCAUCCU
RNA 2: GGGAAUGGAUCCACAUCUACGAAUUCGUAAGGAUGAAACAAUUUGGAGAAGAGCAGAUCGGAAGAGCACACGU
B17: target 2 MT 5'PFS CGC 3'PFS UAU (mixed)
RNA 1: CACCCGUGCAAAAUUGCAGGGGUCUAAAACCUUCUCCAAAUUGUUUCAUCCU
RNA 2: GGGAAUGGAUCCACAUCUACGAAUUCCGCAGGAUGAAACAAUUUGGAGAAGUAUAGAUCGGAAGAGCACACGU
B18: target 2 MT 5'PFS CUC 3'PFS ACG (mixed)
RNA 1: CACCCGUGCAAAAUUGCAGGGGUCUAAAACCUUCUCCAAAUUGUUUCAUCCU
RNA 2: GGGAAUGGAUCCACAUCUACGAAUUCCUCAGGAUGAAACAAUUUGGAGAAGACGAGAUCGGAAGAGCACACGU
B19: target 2 MT 5'PFS GGU 3'PFS AAC (mixed)
RNA 1: CACCCGUGCAAAAUUGCAGGGGUCUAAAACCUUCUCCAAAUUGUUUCAUCCU
RNA 2: GGGAAUGGAUCCACAUCUACGAAUUCGGUAGGAUGAAACAAUUUGGAGAAGAACAGAUCGGAAGAGCACACGU
B20: target 2 MT 5'PFS CAC 3'PFS UCA (mixed)
RNA 1: CACCCGUGCAAAAUUGCAGGGGUCUAAAACCUUCUCCAAAUUGUUUCAUCCU
RNA 2: GGGAAUGGAUCCACAUCUACGAAUUCCACAGGAUGAAACAAUUUGGAGAAGUCAAGAUCGGAAGAGCACACGU
B21: target 2 MT 5'PFS UCU 3'PFS CAA (mixed)
RNA 1: CACCCGUGCAAAAUUGCAGGGGUCUAAAACCUUCUCCAAAUUGUUUCAUCCU
RNA 2: GGGAAUGGAUCCACAUCUACGAAUUCUCUAGGAUGAAACAAUUUGGAGAAGCAAAGAUCGGAAGAGCACACGU
B22: target 2 MT 5'PFS CGG 3'PFS AGC (mixed)
RNA 1: CACCCGUGCAAAAUUGCAGGGGUCUAAAACCUUCUCCAAAUUGUUUCAUCCU
RNA 2: GGGAAUGGAUCCACAUCUACGAAUUCCGGAGGAUGAAACAAUUUGGAGAAGAGCAGAUCGGAAGAGCACACGU
B23: target 2 MT 5'PFS CGG 3'PFS AGA (mixed)
RNA 1: CACCCGUGCAAAAUUGCAGGGGUCUAAAACCUUCUCCAAAUUGUUUCAUCCU
RNA 2: GGGAAUGGAUCCACAUCUACGAAUUCCGGAGGAUGAAACAAUUUGGAGAAGAGAAGAUCGGAAGAGCACACGU
B24: target 2 MT 5'PFS CGG 3'PFS AGG (mixed)
RNA 1: CACCCGUGCAAAAUUGCAGGGGUCUAAAACCUUCUCCAAAUUGUUUCAUCCU
RNA 2: GGGAAUGGAUCCACAUCUACGAAUUCCGGAGGAUGAAACAAUUUGGAGAAGAGGAGAUCGGAAGAGCACACGU
B25: target 2 MT 5'PFS UGG 3'PFS CCU (mixed)
RNA 1: CACCCGUGCAAAAUUGCAGGGGUCUAAAACCUUCUCCAAAUUGUUUCAUCCU
RNA 2: GGGAAUGGAUCCACAUCUACGAAUUCUGGAGGAUGAAACAAUUUGGAGAAGCCUAGAUCGGAAGAGCACACGU
B26: target 1 A20C,C22U (mixed)
RNA 1: CACCCGUGCAAAAAUGCAGGGGUCUAAAACUGAGCGGAUAACCUCUCUAUGG
RNA 2: GGGAAUGGAUCCACAUCUACGAAUUCGUAUCCUAGAGAGGUUAUCCGCUCACCGAGAUCGGAAGAGCACACGU
B27: target 1 insG 3' of 7,insG 3' of 2 (mixed)
RNA 1: CACCCGUGCAAAAAUGCAGGGGUCUAAAACUGAGCGGAUAACCUCUCUAUGG
RNA 2: GGGAAUGGAUCCACAUCUACGAAUUCGUACCAUAGAGAGGUUAUCGCGCUCGACCGAGAUCGGAAGAGCACACGU

The target in this data set is T1, EsCas13d, nuclease-dead. Put plainly: crRNA (strand 1, pre-loaded); Mg2+; 40 mM Tris-HCl pH 7.5, 150 mM NaCl, 6 mM MgCl2, 1 mM DTT, 0.1% Tween-20, 0.2 mg/ml BSA; 25 C; 10 min per concentration, then washed. The conditions noted are these: tags: His6-TwinStrep-SUMO cleaved; N-terminal SNAP kept (SNAP-Surface 488); label: 3' end held by stalled T7 RNA polymerase.
Consider B1, for which the Kd (in general, a measure of binding affinity in units of concentration) came to 5.2 ± 0.7 nM.
As to B2, binding was put at a Kd of 4.7 ± 0.6 nM.
In turn, B3 had a Kd of 8.6 ± 0.6 nM.
Regarding B4, the Kd was 3.9 ± 0.8 nM.
The molecule B5 showed a Kd of 24 ± 8 nM.
Regarding B6, the Kd amounted to 3.1 ± 1.4 nM.
In the case of B7 it was 15.3 ± 3.1 nM; in that of B8, 6.5 ± 0.7 nM.
With B9 the figure was 7.3 ± 1.2 nM; with B10, 8.5 ± 1.7 nM.
With B11, the Kd amounted to 7.6 ± 1.1 nM.
B12 came in with a Kd of 4.9 ± 0.7 nM.
In the case of B13 it was 4.1 ± 0.5 nM; in that of B14, 2.3 ± 0.4 nM.
In the case of B15 it was 4.7 ± 0.9 nM; in that of B16, 6.4 ± 0.6 nM; in that of B17, 3.7 ± 0.4 nM.
The molecule B18 showed a Kd of 1.68 ± 0.18 nM. This Kd is about 2.2-fold lower than that of the molecule before.
With B19 the figure was 13.4 ± 1.4 nM; with B20, 4.1 ± 0.6 nM.
With B21 the figure was 10.5 ± 2.1 nM; with B22, 4.7 ± 0.9 nM; with B23, 4.1 ± 0.7 nM.
With B24 the figure was 4.5 ± 0.5 nM; with B25, 68 ± 33 nM; with B26, 49 ± 6 nM.
For the molecule B27, the Kd turned out to be 6.9 ± 0.4 nM.
